Data on five molecules can be found in patent US20240032514A1 (RENGENE BIOTECHNOLOGY, published 2024).

The target of assay [1] is T1, BSA (UniProt P02769 25-607).
T1 construct: Control protein coated at 2 µg/mL; also called unrelated protein BSA
The experiment in a line: ELISA, protein coated at 2 µg/mL, antibody in gradient dilution.

Assay [2] concerns the target T2, OVA (UniProt P01012 2-386).
T2 construct: Control protein coated at 2 µg/mL; also called unrelated protein OVA
T2 sequence (looked up): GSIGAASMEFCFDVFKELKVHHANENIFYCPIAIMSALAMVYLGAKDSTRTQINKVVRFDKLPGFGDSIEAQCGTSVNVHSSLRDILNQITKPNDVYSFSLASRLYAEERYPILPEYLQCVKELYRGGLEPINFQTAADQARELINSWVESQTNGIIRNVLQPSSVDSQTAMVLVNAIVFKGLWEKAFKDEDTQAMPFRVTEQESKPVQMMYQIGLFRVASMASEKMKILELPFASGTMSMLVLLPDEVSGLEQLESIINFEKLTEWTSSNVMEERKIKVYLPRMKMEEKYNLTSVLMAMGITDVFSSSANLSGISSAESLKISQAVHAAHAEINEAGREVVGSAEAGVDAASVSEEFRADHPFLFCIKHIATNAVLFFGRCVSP
The description is as above.

Assay [3] concerns the target T3, human C-reactive protein (human, UniProt P02741 19-224).
T3 construct: also called CRP; antigen CRP
T3 sequence (looked up): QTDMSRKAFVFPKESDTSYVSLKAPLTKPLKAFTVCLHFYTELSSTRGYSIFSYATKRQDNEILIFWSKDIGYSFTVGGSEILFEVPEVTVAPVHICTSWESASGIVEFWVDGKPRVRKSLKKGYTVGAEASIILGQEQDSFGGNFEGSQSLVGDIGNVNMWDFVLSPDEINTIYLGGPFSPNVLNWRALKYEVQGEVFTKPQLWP
The experiment in a line: BLI (FORTEBIO-OCTET), antibody at 10 µg/mL, CRP at 200-3.13 nM.

The target in assay [4] is T3, human C-reactive protein.
Assay [5] concerns the target T3, human C-reactive protein. The experiment in a line: ELISA, CRP coated at 2 µg/mL.

Changes are numbered by the printed parent chain. Numbers in names are those of the source. Like-named read-outs stand apart in the source and are kept apart here.

T1 sequence (P02769 25-607 limits assumed): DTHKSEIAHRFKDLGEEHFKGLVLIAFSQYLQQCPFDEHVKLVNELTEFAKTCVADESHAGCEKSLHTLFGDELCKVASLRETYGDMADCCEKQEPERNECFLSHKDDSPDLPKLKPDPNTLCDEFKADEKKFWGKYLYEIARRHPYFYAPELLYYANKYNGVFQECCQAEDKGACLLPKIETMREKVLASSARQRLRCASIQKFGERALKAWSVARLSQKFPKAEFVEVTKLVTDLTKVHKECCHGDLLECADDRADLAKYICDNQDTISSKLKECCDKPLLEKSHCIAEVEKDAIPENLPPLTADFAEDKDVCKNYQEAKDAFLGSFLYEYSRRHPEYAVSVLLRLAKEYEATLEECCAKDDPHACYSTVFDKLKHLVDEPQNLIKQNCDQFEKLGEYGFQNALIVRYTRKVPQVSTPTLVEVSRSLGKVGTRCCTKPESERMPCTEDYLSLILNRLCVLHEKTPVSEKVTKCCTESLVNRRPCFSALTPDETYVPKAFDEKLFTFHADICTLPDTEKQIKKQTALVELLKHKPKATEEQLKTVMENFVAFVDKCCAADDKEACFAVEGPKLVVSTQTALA

B1: D5S-12 heavy chain antibody (VHH)
VHH: EVKLLESGGGLVKPGGSLKLSCAASGFTFSDYGMSWIRQTPDKRLEWVATISSGNTYTYYSKSVKGRFTISRDNAKNTLYLQMSSLKSEDTAIYYCSRHTSDYYPLSQGTLVTVSA
Usually Kd stands for a measure of binding affinity in units of concentration. The low end stands for a tighter complex, the high end for a looser complex. One may read the koff as the first-order rate constant of dissociation. The kon is the rate constant with which the complex forms. The low end stands for slower complex formation, the high end for faster complex formation. On to B1, for which the binding result in assay [1] is “no binding”. In addition, the binding result in assay [2] is reported as “no binding”. For the same molecule, in assay [3], the Kd was determined as 0.987 nM, the koff was determined as 8.44e-05 s⁻¹ and the kon was determined as 85500 M⁻¹ s⁻¹.

B2: G3-35 (VHH)
VHH: EVQLQQSGPELVKPGASVRMSCKASGYTFTDYNIHWVKQSHGESLEWIGFVNPDNGDTYYYKNFKGKATLTFNRSSSTAYMDLRSLTSEDSAVYYCARGTTVEKDYWGQGTTLTVSS
As for B2, the binding result in assay [4] is recorded as “binds”.

B3: G3-71 (VHH)
VHH: B2 VHH with V51I, K65R, F72L, R74K, A92G, T112I
Regarding B3, the binding result in assay [4] is given as “binds”.

B4: G3-23 (VHH)
VHH: B2 VHH with L11V, V12L, A16T, H41R, N55T, T112I
In the case of B4, the binding result in assay [4] is “binds”.

B5: D4-12 heavy chain antibody variable region (VHH)
VHH: EVQLQQSGPELVKPGASVKISCKASGYMFSDYYMNWVKQSHGKSLEWIGNVDPNTDNTIYNQNFKDKATLTVDRSSRTAYMELHSLTSEDSAVYYCARSRFYDPWFAYWGQGTLVTVSA
B5: in assay [5], the binding result is on record as “binds”.
